Laboratory results reported in patent US20140213513A1 (Sanofi, priority 2012, published 2014).
*1 amine or outer side, *2 acyl side, *3 side chain or, on linkers, in order; H or OH if unused. Where no end group is shown, it is not given here. Side-chain parts run from the residue outwards. [ ]: non-standard residue; d: D form. The star is where a group is joined. γGlu = O=C(O)[C@H](CCC(=O)[*:2])N[*:1]; Stearoyl = CCCCCCCCCCCCCCCCCC(=O)*; Palmitoyl = CCCCCCCCCCCCCCCC(=O)*; Aib = CC(C)(N)C(=O)O

Experiments:
Experiment in all cases: cell-based or functional assay
human GLP-1 receptor = human GLP-1 receptor (human, UniProt P43220 24-463)
human GIP receptor = target: T1, human GIP receptor (human, UniProt P48546 22-466)
T1 sequence (looked up): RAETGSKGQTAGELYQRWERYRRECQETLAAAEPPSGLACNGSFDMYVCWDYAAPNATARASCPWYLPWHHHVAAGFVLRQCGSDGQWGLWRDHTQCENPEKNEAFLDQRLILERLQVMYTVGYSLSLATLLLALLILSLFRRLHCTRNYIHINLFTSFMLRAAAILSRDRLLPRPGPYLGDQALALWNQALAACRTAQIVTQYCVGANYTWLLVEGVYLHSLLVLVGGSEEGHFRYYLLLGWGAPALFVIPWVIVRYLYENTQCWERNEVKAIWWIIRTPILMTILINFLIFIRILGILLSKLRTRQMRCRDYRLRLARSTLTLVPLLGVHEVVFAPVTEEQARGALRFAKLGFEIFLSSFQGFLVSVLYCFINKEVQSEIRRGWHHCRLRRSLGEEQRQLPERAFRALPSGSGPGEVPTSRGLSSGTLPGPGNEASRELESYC

human glucagon receptor = human glucagon receptor (human, UniProt P47871 26-477)
human glucagon receptor, sequence (P47871 26-477): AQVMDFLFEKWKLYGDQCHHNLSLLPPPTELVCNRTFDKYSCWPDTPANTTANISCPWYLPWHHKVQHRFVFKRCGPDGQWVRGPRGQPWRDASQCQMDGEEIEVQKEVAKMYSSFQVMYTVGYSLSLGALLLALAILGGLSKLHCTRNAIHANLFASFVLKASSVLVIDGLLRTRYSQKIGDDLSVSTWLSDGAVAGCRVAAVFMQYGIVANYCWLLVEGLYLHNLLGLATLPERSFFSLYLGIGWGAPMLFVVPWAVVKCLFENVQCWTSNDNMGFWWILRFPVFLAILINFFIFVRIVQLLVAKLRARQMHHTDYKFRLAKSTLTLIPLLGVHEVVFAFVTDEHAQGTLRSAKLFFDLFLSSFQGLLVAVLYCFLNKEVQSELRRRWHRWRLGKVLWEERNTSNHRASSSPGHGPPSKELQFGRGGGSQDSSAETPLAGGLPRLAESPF

B1: exendin-4 peptide analogue SEQ ID NO: 15 (peptide)
peptide: Y[Aib]QGTFTSDLSIQK([γGlu-Palmitoyl])EQRAA[Aib]EFIEWLKNTGPSSGAPPPS-NH2
modifications: N-terminus assumed
SMILES: CCCCCCCCCCCCCCCC(=O)N[C@@H](CCC(=O)NCCCC[C@H](NC(=O)[C@H](CCC(N)=O)NC(=O)[C@@H](NC(=O)[C@H](CO)NC(=O)[C@H](CC(C)C)NC(=O)[C@H](CC(=O)O)NC(=O)[C@H](CO)NC(=O)[C@@H](NC(=O)[C@H](Cc1ccccc1)NC(=O)[C@@H](NC(=O)CNC(=O)[C@H](CCC(N)=O)NC(=O)C(C)(C)NC(=O)[C@@H](N)Cc1ccc(O)cc1)[C@@H](C)O)[C@@H](C)O)[C@@H](C)CC)C(=O)N[C@@H](CCC(=O)O)C(=O)N[C@@H](CCC(N)=O)C(=O)N[C@@H](CCCNC(=N)N)C(=O)N[C@@H](C)C(=O)N[C@@H](C)C(=O)NC(C)(C)C(=O)N[C@@H](CCC(=O)O)C(=O)N[C@@H](Cc1ccccc1)C(=O)N[C@H](C(=O)N[C@@H](CCC(=O)O)C(=O)N[C@@H](Cc1c[nH]c2ccccc12)C(=O)N[C@@H](CC(C)C)C(=O)N[C@@H](CCCCN)C(=O)N[C@@H](CC(N)=O)C(=O)N[C@H](C(=O)NCC(=O)N1CCC[C@H]1C(=O)N[C@@H](CO)C(=O)N[C@@H](CO)C(=O)NCC(=O)N[C@@H](C)C(=O)N1CCC[C@H]1C(=O)N1CCC[C@H]1C(=O)N1CCC[C@H]1C(=O)N[C@@H](CO)C(N)=O)[C@@H](C)O)[C@@H](C)CC)C(=O)O
EC50 hGLP-1 R (human GLP-1 receptor): 0.0069 nM | EC50 hGIP R (human GIP receptor): 0.0114 nM | EC50 hGLUC R (human glucagon receptor): 0.054 nM

B2: exendin-4 peptide analogue SEQ ID NO: 14 (peptide)
peptide: Y[Aib]QGTFTSDLSIQK([γGlu-Palmitoyl])EKRAA[Aib]EFIEWLKA[dA]GPSSGAPPPS-NH2
modifications: N-terminus assumed
SMILES: CCCCCCCCCCCCCCCC(=O)N[C@@H](CCC(=O)NCCCC[C@H](NC(=O)[C@H](CCC(N)=O)NC(=O)[C@@H](NC(=O)[C@H](CO)NC(=O)[C@H](CC(C)C)NC(=O)[C@H](CC(=O)O)NC(=O)[C@H](CO)NC(=O)[C@@H](NC(=O)[C@H](Cc1ccccc1)NC(=O)[C@@H](NC(=O)CNC(=O)[C@H](CCC(N)=O)NC(=O)C(C)(C)NC(=O)[C@@H](N)Cc1ccc(O)cc1)[C@@H](C)O)[C@@H](C)O)[C@@H](C)CC)C(=O)N[C@@H](CCC(=O)O)C(=O)N[C@@H](CCCCN)C(=O)N[C@@H](CCCNC(=N)N)C(=O)N[C@@H](C)C(=O)N[C@@H](C)C(=O)NC(C)(C)C(=O)N[C@@H](CCC(=O)O)C(=O)N[C@@H](Cc1ccccc1)C(=O)N[C@H](C(=O)N[C@@H](CCC(=O)O)C(=O)N[C@@H](Cc1c[nH]c2ccccc12)C(=O)N[C@@H](CC(C)C)C(=O)N[C@@H](CCCCN)C(=O)N[C@@H](C)C(=O)N[C@H](C)C(=O)NCC(=O)N1CCC[C@H]1C(=O)N[C@@H](CO)C(=O)N[C@@H](CO)C(=O)NCC(=O)N[C@@H](C)C(=O)N1CCC[C@H]1C(=O)N1CCC[C@H]1C(=O)N1CCC[C@H]1C(=O)N[C@@H](CO)C(N)=O)[C@@H](C)CC)C(=O)O
EC50 hGLP-1 R (human GLP-1 receptor): 0.0065 nM | EC50 hGIP R (human GIP receptor): 0.0062 nM | EC50 hGLUC R (human glucagon receptor): 0.0623 nM

B3: exendin-4 peptide analogue SEQ ID NO: 13 (peptide)
peptide: Y[Aib]QGTFTSDLSIQK([γGlu-Palmitoyl])EKRYA[Aib]EFIEWLKNTGPSSGAPPPS-NH2
modifications: N-terminus assumed
SMILES: CCCCCCCCCCCCCCCC(=O)N[C@@H](CCC(=O)NCCCC[C@H](NC(=O)[C@H](CCC(N)=O)NC(=O)[C@@H](NC(=O)[C@H](CO)NC(=O)[C@H](CC(C)C)NC(=O)[C@H](CC(=O)O)NC(=O)[C@H](CO)NC(=O)[C@@H](NC(=O)[C@H](Cc1ccccc1)NC(=O)[C@@H](NC(=O)CNC(=O)[C@H](CCC(N)=O)NC(=O)C(C)(C)NC(=O)[C@@H](N)Cc1ccc(O)cc1)[C@@H](C)O)[C@@H](C)O)[C@@H](C)CC)C(=O)N[C@@H](CCC(=O)O)C(=O)N[C@@H](CCCCN)C(=O)N[C@@H](CCCNC(=N)N)C(=O)N[C@@H](Cc1ccc(O)cc1)C(=O)N[C@@H](C)C(=O)NC(C)(C)C(=O)N[C@@H](CCC(=O)O)C(=O)N[C@@H](Cc1ccccc1)C(=O)N[C@H](C(=O)N[C@@H](CCC(=O)O)C(=O)N[C@@H](Cc1c[nH]c2ccccc12)C(=O)N[C@@H](CC(C)C)C(=O)N[C@@H](CCCCN)C(=O)N[C@@H](CC(N)=O)C(=O)N[C@H](C(=O)NCC(=O)N1CCC[C@H]1C(=O)N[C@@H](CO)C(=O)N[C@@H](CO)C(=O)NCC(=O)N[C@@H](C)C(=O)N1CCC[C@H]1C(=O)N1CCC[C@H]1C(=O)N1CCC[C@H]1C(=O)N[C@@H](CO)C(N)=O)[C@@H](C)O)[C@@H](C)CC)C(=O)O
EC50 hGLP-1 R (human GLP-1 receptor): 0.0141 nM | EC50 hGIP R (human GIP receptor): 0.0263 nM | EC50 hGLUC R (human glucagon receptor): 0.0202 nM

B4: exendin-4 peptide analogue SEQ ID NO: 16 (peptide)
peptide: Y[Aib]EGTFTSDLSIQK([γGlu-Stearoyl])ESKAA[Aib]EFIEWLKAGGPSSGAPPPSK-NH2
modifications: N-terminus assumed
SMILES: CCCCCCCCCCCCCCCCCC(=O)N[C@@H](CCC(=O)NCCCC[C@H](NC(=O)[C@H](CCC(N)=O)NC(=O)[C@@H](NC(=O)[C@H](CO)NC(=O)[C@H](CC(C)C)NC(=O)[C@H](CC(=O)O)NC(=O)[C@H](CO)NC(=O)[C@@H](NC(=O)[C@H](Cc1ccccc1)NC(=O)[C@@H](NC(=O)CNC(=O)[C@H](CCC(=O)O)NC(=O)C(C)(C)NC(=O)[C@@H](N)Cc1ccc(O)cc1)[C@@H](C)O)[C@@H](C)O)[C@@H](C)CC)C(=O)N[C@@H](CCC(=O)O)C(=O)N[C@@H](CO)C(=O)N[C@@H](CCCCN)C(=O)N[C@@H](C)C(=O)N[C@@H](C)C(=O)NC(C)(C)C(=O)N[C@@H](CCC(=O)O)C(=O)N[C@@H](Cc1ccccc1)C(=O)N[C@H](C(=O)N[C@@H](CCC(=O)O)C(=O)N[C@@H](Cc1c[nH]c2ccccc12)C(=O)N[C@@H](CC(C)C)C(=O)N[C@@H](CCCCN)C(=O)N[C@@H](C)C(=O)NCC(=O)NCC(=O)N1CCC[C@H]1C(=O)N[C@@H](CO)C(=O)N[C@@H](CO)C(=O)NCC(=O)N[C@@H](C)C(=O)N1CCC[C@H]1C(=O)N1CCC[C@H]1C(=O)N1CCC[C@H]1C(=O)N[C@@H](CO)C(=O)N[C@@H](CCCCN)C(N)=O)[C@@H](C)CC)C(=O)O
EC50 hGLP-1 R (human GLP-1 receptor): 0.007 nM | EC50 hGIP R (human GIP receptor): 0.0156 nM | EC50 hGLUC R (human glucagon receptor): 17 nM

B5: exendin-4 peptide analogue SEQ ID NO: 17 (peptide)
peptide: Y[Aib]EGTFTSDLSKQK([γGlu-Palmitoyl])EKEAA[Aib]EFIEWLKAGGPSSGAPPPS-NH2
modifications: N-terminus assumed
SMILES: CCCCCCCCCCCCCCCC(=O)N[C@@H](CCC(=O)NCCCC[C@H](NC(=O)[C@H](CCC(N)=O)NC(=O)[C@H](CCCCN)NC(=O)[C@H](CO)NC(=O)[C@H](CC(C)C)NC(=O)[C@H](CC(=O)O)NC(=O)[C@H](CO)NC(=O)[C@@H](NC(=O)[C@H](Cc1ccccc1)NC(=O)[C@@H](NC(=O)CNC(=O)[C@H](CCC(=O)O)NC(=O)C(C)(C)NC(=O)[C@@H](N)Cc1ccc(O)cc1)[C@@H](C)O)[C@@H](C)O)C(=O)N[C@@H](CCC(=O)O)C(=O)N[C@@H](CCCCN)C(=O)N[C@@H](CCC(=O)O)C(=O)N[C@@H](C)C(=O)N[C@@H](C)C(=O)NC(C)(C)C(=O)N[C@@H](CCC(=O)O)C(=O)N[C@@H](Cc1ccccc1)C(=O)N[C@H](C(=O)N[C@@H](CCC(=O)O)C(=O)N[C@@H](Cc1c[nH]c2ccccc12)C(=O)N[C@@H](CC(C)C)C(=O)N[C@@H](CCCCN)C(=O)N[C@@H](C)C(=O)NCC(=O)NCC(=O)N1CCC[C@H]1C(=O)N[C@@H](CO)C(=O)N[C@@H](CO)C(=O)NCC(=O)N[C@@H](C)C(=O)N1CCC[C@H]1C(=O)N1CCC[C@H]1C(=O)N1CCC[C@H]1C(=O)N[C@@H](CO)C(N)=O)[C@@H](C)CC)C(=O)O
EC50 hGLP-1 R (human GLP-1 receptor): 0.0052 nM | EC50 hGIP R (human GIP receptor): 0.0083 nM | EC50 hGLUC R (human glucagon receptor): 21 nM

B6: exendin-4 peptide analogue SEQ ID NO: 18 (peptide)
peptide: Y[Aib]HGTFTSDLSIQK([γGlu-Stearoyl])EKRAA[Aib]EFIEWLKNTGPSSGAPPPS-NH2
modifications: N-terminus assumed
SMILES: CCCCCCCCCCCCCCCCCC(=O)N[C@@H](CCC(=O)NCCCC[C@H](NC(=O)[C@H](CCC(N)=O)NC(=O)[C@@H](NC(=O)[C@H](CO)NC(=O)[C@H](CC(C)C)NC(=O)[C@H](CC(=O)O)NC(=O)[C@H](CO)NC(=O)[C@@H](NC(=O)[C@H](Cc1ccccc1)NC(=O)[C@@H](NC(=O)CNC(=O)[C@H](Cc1c[nH]cn1)NC(=O)C(C)(C)NC(=O)[C@@H](N)Cc1ccc(O)cc1)[C@@H](C)O)[C@@H](C)O)[C@@H](C)CC)C(=O)N[C@@H](CCC(=O)O)C(=O)N[C@@H](CCCCN)C(=O)N[C@@H](CCCNC(=N)N)C(=O)N[C@@H](C)C(=O)N[C@@H](C)C(=O)NC(C)(C)C(=O)N[C@@H](CCC(=O)O)C(=O)N[C@@H](Cc1ccccc1)C(=O)N[C@H](C(=O)N[C@@H](CCC(=O)O)C(=O)N[C@@H](Cc1c[nH]c2ccccc12)C(=O)N[C@@H](CC(C)C)C(=O)N[C@@H](CCCCN)C(=O)N[C@@H](CC(N)=O)C(=O)N[C@H](C(=O)NCC(=O)N1CCC[C@H]1C(=O)N[C@@H](CO)C(=O)N[C@@H](CO)C(=O)NCC(=O)N[C@@H](C)C(=O)N1CCC[C@H]1C(=O)N1CCC[C@H]1C(=O)N1CCC[C@H]1C(=O)N[C@@H](CO)C(N)=O)[C@@H](C)O)[C@@H](C)CC)C(=O)O
EC50 hGLP-1 R (human GLP-1 receptor): 0.0183 nM | EC50 hGIP R (human GIP receptor): 0.0095 nM | EC50 hGLUC R (human glucagon receptor): 0.0095 nM
